# Laboratory results as given in article PMC5013389, “Competition between members of the tribbles pseudokinase protein family shapes their interactions with mitogen activated protein kinase pathways” (Scientific Reports, 2016).
# T1: MKK4-V1 (full length MKK4 fused to the V1 fragment of Venus YFP) (UniProt P45985 1-399)
# T1 construct: source: HeLa, transfected, in live cells; not shown: Venus YFP fragment V1, C-terminal, kept
# T1 sequence (looked up): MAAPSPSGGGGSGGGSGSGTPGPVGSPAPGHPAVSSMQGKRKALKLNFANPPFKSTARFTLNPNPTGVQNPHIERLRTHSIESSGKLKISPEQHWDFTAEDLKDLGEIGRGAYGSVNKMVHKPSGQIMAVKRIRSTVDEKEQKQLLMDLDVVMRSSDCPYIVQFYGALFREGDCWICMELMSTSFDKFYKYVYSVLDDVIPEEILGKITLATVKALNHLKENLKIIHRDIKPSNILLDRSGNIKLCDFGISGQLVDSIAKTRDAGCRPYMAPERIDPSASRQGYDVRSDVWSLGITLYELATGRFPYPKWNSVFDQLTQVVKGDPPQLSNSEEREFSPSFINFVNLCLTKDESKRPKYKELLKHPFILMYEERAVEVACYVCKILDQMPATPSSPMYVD
# Biological target: T1, MKK4-V1 (full length MKK4 fused to the …)
# Assay: split reporter (BiFC, NanoBiT); competitive PCA in HeLa cells: MKK-V1 and TRIB-V2 co-transfected with an increasing dose of an untagged competitor plasmid (ERK, p38 or TRIB); mean fluorescence by flow cytometry 24 h after transfection; doses are plasmid amounts relative to TRIB-V2
# Conditions: partners not purified
binder,measurement,value
"untagged TRIB-3 (natural protein, UniProt Q96RU7 1-358, looked up, TRIB3, untagged expression plasmid; also called unlabelled tribbles; untagged tribbles; source: HeLa, transfected, in live cells) MRATPLAAPAGSLSRKKRLELDDNLDTERPVQKRARSGPQPRLPPCLLPLSPPTAPDRATAVATASRLGPYVLLEPEEGGRAYQALHCPTGTEYTCKVYPVQEALAVLEPYARLPPHKHVARPTEVLAGTQLLYAFFTRTHGDMHSLVRSRHRIPEPEAAVLFRQMATALAHCHQHGLVLRDLKLCRFVFADRERKKLVLENLEDSCVLTGPDDSLWDKHACPAYVGPEILSSRASYSGKAADVWSLGVALFTMLAGHYPFQDSEPVLLFGKIRRGAYALPAGLSAPARCLVRCLLRREPAERLTATGILLHPWLRQDPMPLAPTRSHLWEAAQVVPDGLGLDEAREEEGDREVVLYG",fold affinity to MKK4 relative to TRIB2,~15 fold
